Measurements: patent publication US20260234242A1 (HAINAN SIMCERE ZAIMING PHARMACEUTICAL, published 2026)
Residue numbers refer to the chain shown, from its start.

T1: his-tagged human CDH6 extracellular region protein (hCDH6 ECD-his) (human, UniProt P55285 19-615)
T1 construct: also called Human CDH6-his; hCDH6-his; not shown: his tag
T1 sequence: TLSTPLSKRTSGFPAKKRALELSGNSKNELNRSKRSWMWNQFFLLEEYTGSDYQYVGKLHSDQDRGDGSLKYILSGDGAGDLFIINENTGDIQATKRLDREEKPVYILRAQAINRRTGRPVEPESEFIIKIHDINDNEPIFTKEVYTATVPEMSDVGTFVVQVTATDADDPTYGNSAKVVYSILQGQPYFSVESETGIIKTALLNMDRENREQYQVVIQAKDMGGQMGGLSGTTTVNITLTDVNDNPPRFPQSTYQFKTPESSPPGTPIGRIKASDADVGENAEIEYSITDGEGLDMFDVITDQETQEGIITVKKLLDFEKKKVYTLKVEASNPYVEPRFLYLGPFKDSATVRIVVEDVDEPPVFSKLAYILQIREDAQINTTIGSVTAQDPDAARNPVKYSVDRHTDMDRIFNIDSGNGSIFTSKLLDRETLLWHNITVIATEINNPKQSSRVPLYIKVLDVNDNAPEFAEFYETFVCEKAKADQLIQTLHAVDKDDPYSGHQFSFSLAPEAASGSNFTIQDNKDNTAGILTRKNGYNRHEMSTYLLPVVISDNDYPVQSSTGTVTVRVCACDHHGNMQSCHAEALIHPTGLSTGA

T2: human CDH6 on tumor cells (OVCAR3 cells, PA-1 cells) (human, UniProt P55285 54-790)
T2 sequence: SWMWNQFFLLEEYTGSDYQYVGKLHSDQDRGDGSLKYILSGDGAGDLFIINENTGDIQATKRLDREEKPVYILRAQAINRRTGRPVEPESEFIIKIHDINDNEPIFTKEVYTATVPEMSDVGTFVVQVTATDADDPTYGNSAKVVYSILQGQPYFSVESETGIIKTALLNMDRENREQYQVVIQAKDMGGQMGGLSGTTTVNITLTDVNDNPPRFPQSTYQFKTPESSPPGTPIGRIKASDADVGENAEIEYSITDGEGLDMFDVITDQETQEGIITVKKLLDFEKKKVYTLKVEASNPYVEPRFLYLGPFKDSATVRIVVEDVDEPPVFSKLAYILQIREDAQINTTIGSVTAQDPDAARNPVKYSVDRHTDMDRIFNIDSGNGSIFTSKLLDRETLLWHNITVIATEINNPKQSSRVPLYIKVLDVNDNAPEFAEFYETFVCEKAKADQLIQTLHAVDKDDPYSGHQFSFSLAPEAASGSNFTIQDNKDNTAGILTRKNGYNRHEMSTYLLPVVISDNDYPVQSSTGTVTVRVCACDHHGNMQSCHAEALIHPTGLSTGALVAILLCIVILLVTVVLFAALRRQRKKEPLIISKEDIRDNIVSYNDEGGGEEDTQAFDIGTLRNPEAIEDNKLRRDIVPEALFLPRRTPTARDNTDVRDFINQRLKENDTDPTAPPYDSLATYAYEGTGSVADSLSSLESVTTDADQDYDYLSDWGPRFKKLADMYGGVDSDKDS

B1: hCDH6-6-H1L3 (antibody, V domains shown)
VH: EVQLVQSGAEVKKPGASVKVSCKASGYTFTDYYMAWVRQAPGQGLEWMGYIFPNSGGTDYSQKFKGRVTMTVDKSTSTVYMELSSLRSEDTAVYYCARELGADYGDYYAMDHWGQGTTVTVSS
VL: DIQMTQSPSSLSASVGDRVTITCRASENIDSYLAWYQQKPGKSPQLLVYSATLLADGVPSRFSGSGSGTDYTLTISSLQPEDFATYYCQHYYRTPPTFGQGTKLEIK
notes: Humanized
B2: hCDH6-6-H3L3 (antibody, V domains shown)
VH: B1 VH with G42R
VL: B1 VL
notes: Humanized
B3: hCDH6-6-H1L4 (antibody, V domains shown)
VH: B1 VH
VL: B1 VL with Q45K, T85R
notes: Humanized; also called hCDH6-6-HIL4
B4: hCDH6-6-H2L4 (antibody, V domains shown)
VH: B1 VH with M70L
VL: B1 VL with Q45K, T85R
notes: Humanized
B5: hCDH6-6-H3L2 (antibody, V domains shown)
VH: B1 VH with G42R
VL: B1 VL with Q45K
notes: Humanized
B6: hCDH6-6-H2L3 (antibody, V domains shown)
VH: B1 VH with M70L
VL: B1 VL
notes: Humanized
B7: hCDH6-6-H3L1 (antibody, V domains shown)
VH: B1 VH with G42R
VL: B1 VL with Q45K, V48L
notes: Humanized
B8: hCDH6-14-H6L1 (antibody, V domains shown)
VH: EVQLVQSGAEVKKPGASVKVSCKASGYTFTDNYINWVRQAPGQRLEWMGWIYPGTGNSYYNEKFKGRVTITVDTSASTAYMELSSLRSEDTAVYLCASSYGDSFDYWGQGTTVTVSS
VL: DIQMTQSPSSLSASVGDRVTITCRASQDIRNYLNWYQQKPGKAFKLLISYTSRLHSGVPSRFSGSGSGTDFTFTISSLQPEDIATYYCQQYSQLPWTFGGGTKVEIK
notes: Humanized
B9: hCDH6-14-H1L3 (antibody, V domains shown)
VH: B8 VH with L95Y
VL: DIVMTQSPDSLAVSLGERATINCRASQDIRNYLNWYQQKPGQTPKLLISYTSRLHSGVPDRFSGSGSGTDFTLTISSLQAEDVAVYYCQQYSQLPWTFGGGTKVEIK
notes: Humanized
B10: hCDH6-14-H3L3 (antibody, V domains shown)
VH: B8 VH with V2I, I70L, L95Y
VL: B9 VL
notes: Humanized
B11: hCDH6-14-H5L3 (antibody, V domains shown)
VH: B8 VH with V5Q, L95Y
VL: B9 VL
notes: Humanized
B12: hCDH6-14-H4L3 (antibody, V domains shown)
VH: B8 VH with R44G, L95Y
VL: B9 VL
notes: Humanized
B13: hCDH6-14-H2L3 (antibody, V domains shown)
VH: B8 VH with V2I, L95Y
VL: B9 VL
notes: Humanized
B14: hCDH6-14-H6L2 (antibody, V domains shown)
VH: B8 VH
VL: B8 VL with K42G, F44P
notes: Humanized

What follows are binders tested against T1, his-tagged human CDH6 extracellular … (assay: ELISA, coated antigen).
Method: (§1) Human CDH6 protein (hCDH6 ECD-his, conventionally synthesized), monkey CDH6 protein (cynoCDH6 ECD-his, conventionally synthesized; the cynoCDH6 ECD sequence was derived from Uniprot #A0A2K5TW62 (19-615)), and murine CDH6 protein (mCDH6 ECD-his, conventionally synthesized; the mCDH6 ECD sequence was derived from Uniprot #P97326 (19-615)) were diluted with PBS to a final concentration of 1 μg/mL, and added to a 96-well ELISA plate at 100 μL/well. The plate was incubated at 4° C. overnight. The next day, the plate was washed 3 times with a plate washing solution (PBS+0.01% (v/v) Tween 20), and a blocking buffer (PBS+0.01% (v/v) Tween 20+2% (w/w) BSA) was added for blocking at room temperature for 2 h. The blocking buffer was discarded, and the plate was washed 3 times. The chimeric antibodies were diluted with 1% BSA+PBS (purchased from Cytiva, Cat. No. SH30264.01) and added to the 96-well plate at 50 μL/well. After incubation at 37° C. for 2 h, the plate was washed 3 times with a plate washing solution. […] The plate was incubated at 37° C. for 1 h and then washed 5 times with a plate washing solution. A TMB substrate (purchased from Seracare, Cat. No. 5120-0077) was added at 50 μL/well and incubated at room temperature for 10 min, then a stop solution (1.0 N HCl) was added at 50 μL/well. OD450 nm values were read using a microplate reader (Biotek). Analysis was performed by the GraphPad Prism software, data were fitted, and EC50 values were calculated. The chimeric antibodies tested all had strong binding to the human CDH6 protein, the monkey CDH6 protein, and the murine CDH6 protein.
(§2) According to the above sequences, heavy chain (HC) and light chain (LC) plasmids were constructed (the nucleic acid sequences encoding the VH and VL of the antibodies were recombined into an expression vector carrying a signal peptide (SEQ ID NO: 132, […]) and a heavy chain constant region/light chain constant region sequence to obtain recombinant plasmids expressing VH—CH1-Fc/VL-CL).

Row | EC50 [nM] | Max OD450 [OD450] | Binder
1 | 0.031 | 1.99 | B1
2 | 0.031 | 2 | B2
3 | 0.021 | 2.16 | B3
4 | 0.029 | 2.14 | B4
5 | 0.03 | 2.09 | B5
6 | 0.025 | 2.09 | B6
7 | 0.05 | 2.02 | B7

Each binder was assayed against T2, human CDH6 on tumor cells (OVCAR3 …) (assay: FACS, OVCAR3 cells).
Method: (§3) OVCAR3 cells with high expression of CDH6 and PA-1 cells with moderate expression of CDH6 were used to detect the binding activity of the antibodies to the cells. […] The cells were washed once with PBS, counted, resuspended to 2×10⁶ cells/mL in an FACS buffer (PBS+2% FBS), and then added to a 96-well plate at 50 μL/well. The chimeric antibodies were diluted with FACS buffer (PBS+2% FBS) and added to the 96-well plate at 50 μL/well, and the plate was incubated at 4° C. for 1 h. […] The dilution was added to the 96-well plate at 50 μL/well, and the plate was incubated at 4° C. for 1 h. After the plates were centrifuged and washed 2 times with PBS, the cells were resuspended in an FACS buffer. The mean fluorescence intensity (MFI) was measured using FACS Canton II (BD). Analysis was performed by the GraphPad Prism software, data were fitted, and EC50 values were calculated. The chimeric antibodies tested had strong binding to both OVCAR3 cells and PA-1 cells.
as §2, with “VH—CH1-Fc/VL-CL). According to the expression and purification methods in Example 2, the hCDH6-6 humanized antibodies were obtained, and the binding activity of the humanized antibodies was detected by ELISA and FACS (see 2.2 and 2.3 for the method).” for “VH—CH1-Fc/VL-CL).”

Row | EC50 [nM] | Max MFI [MFI] | Binder
8 | 0.63 | 13800 | B1
9 | 0.74 | 14300 | B2
10 | 0.64 | 14400 | B3
11 | 0.62 | 14300 | B4
12 | 0.85 | 14600 | B5
13 | 0.57 | 14100 | B6
14 | 0.87 | 13700 | B7

Each binder was assayed against T2, human CDH6 on tumor cells (OVCAR3 …) (assay: FACS, PA-1 cells).
Method: as §3
as §2, with “VH-CH1-Fc/VL-CL). According to the expression and purification methods in Example 2, the hCDH6-14 humanized antibodies were obtained, and the binding activity of the humanized antibodies was detected by ELISA and FACS (see 2.2 and 2.3 for the method).” for “VH—CH1-Fc/VL-CL).”

Row | EC50 [nM] | Max MFI [MFI] | Binder
15 | 0.24 | 3700 | B8
16 | 0.27 | 3580 | B9
17 | 0.19 | 3470 | B10
18 | 0.21 | 3600 | B11
19 | 0.27 | 3870 | B12
20 | 0.22 | 3780 | B13
21 | 0.26 | 3540 | B14

Molecular target: T1, his-tagged human CDH6 extracellular …
Assay: ELISA, coated antigen
Remark: another data set of the same source
Method: as §1
as §2, with “VH-CH1-Fc/VL-CL).” for “VH—CH1-Fc/VL-CL).”

Row | EC50 [nM] | Max OD450 [OD450] | Binder
22 | 0.067 | 2.7 | B8
23 | 0.056 | 2.68 | B9
24 | 0.113 | 2.56 | B10
25 | 0.092 | 2.72 | B11
26 | 0.084 | 2.67 | B12
27 | 0.09 | 2.48 | B13
28 | 0.093 | 2.62 | B14
